Measured values reported in patent publication US20250066490A1, “ANTI-CD70 ANTIBODIES, CONJUGATES THEREOF AND METHODS OF USING THE SAME” (ProfoundBio US Co., priority 2021, published 2025).

T1: CD70 ECD (Homo sapiens, UniProt P32970)
T1 sequence (P32970 39-193 limits assumed): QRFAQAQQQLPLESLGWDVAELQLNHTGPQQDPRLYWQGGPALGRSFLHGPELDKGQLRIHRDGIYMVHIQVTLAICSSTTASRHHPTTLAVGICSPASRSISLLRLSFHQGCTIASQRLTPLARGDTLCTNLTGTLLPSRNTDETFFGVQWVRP

T2: rat CD70 extra-cellular domain (ECD) (Rattus norvegicus, UniProt M0R613)
T2 construct: human, rat, or mouse CD70 extra-cellular domain (ECD) linked to His tag; His tag; purchased ACRO systems
T2 sequence (M0R613 1-194): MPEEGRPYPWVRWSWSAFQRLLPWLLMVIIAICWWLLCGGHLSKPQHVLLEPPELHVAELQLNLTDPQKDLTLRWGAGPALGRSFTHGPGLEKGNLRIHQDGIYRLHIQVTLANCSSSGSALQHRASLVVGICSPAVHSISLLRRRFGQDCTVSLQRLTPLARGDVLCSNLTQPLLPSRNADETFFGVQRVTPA

T3: human CD70 extra-cellular domain (ECD) (Homo sapiens, UniProt P32970)
T3 construct: human, rat, or mouse CD70 extra-cellular domain (ECD) linked to His tag; His tag; purchased ACRO systems
T3 sequence (P32970 39-193 limits assumed): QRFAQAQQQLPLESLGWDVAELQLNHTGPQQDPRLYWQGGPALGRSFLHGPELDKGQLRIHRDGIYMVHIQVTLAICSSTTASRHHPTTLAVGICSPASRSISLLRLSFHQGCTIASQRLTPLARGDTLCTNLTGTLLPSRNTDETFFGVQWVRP

T4: mouse CD70 extra-cellular domain (ECD) (Mus musculus, UniProt O55237)
T4 construct: human, rat, or mouse CD70 extra-cellular domain (ECD) linked to His tag; His tag; purchased ACRO systems
T4 sequence (O55237 45-195): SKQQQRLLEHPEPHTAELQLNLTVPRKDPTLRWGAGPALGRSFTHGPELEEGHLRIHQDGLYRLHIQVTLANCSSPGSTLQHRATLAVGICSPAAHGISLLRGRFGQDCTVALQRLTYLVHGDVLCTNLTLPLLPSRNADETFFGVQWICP

B1: 2A4P0L1: new VH/VL combination derived from the VH of 2A4 and the VL of 2D2 (antibody, V domains shown)
VH: QVQLQESGPGLVKPSETLSLTCTVSGGSVSSDYYYWSWIRQPPGKGLEWLGYIYYSGSTNYNPSLKSRVTISVDTSKNQFSLKLRSVTTADTAVYYCARGDGDYGGNVFPYWGQGTLVTVSS
VL: EIVLTQSPATLSLSPGERATLSCRASQSVSSYLAWYQQKPGQAPRLLIFDASNRATGIPARFSGSGSGTDFTLTISSLEPEDFAVYYCQQRLKFPLTFGGGTKVEIK
B2: 69A7: parent anti-CD70 antibody (U.S. Pat. No. 8,124,738B2), VH/VL SEQ ID NOs: 1 and 2 (antibody, V domains shown)
VH: QVQLQESGPGLVKPSETLSLTCTVSGGSVSSDYYYWSWIRQPPGKGLEWLGYIYYSGSTNYNPSLKSRVTISVDTSKNQFSLKLRSVTTADTAVYYCARGDGDYGGNCFDYWGQGTLVTVSS
VL: EIVLTQSPATLSLSPGERATLSCRASQSVSSYLAWYQQKPGQAPRLLIFDASNRATGIPARFSGSGSGTDFTLTISSLEPEDFAVYYCQQRSNWPLTFGGGTKVEIK
modifications: Synthetic 69A7 VH amino acid sequence; Synthetic 69A7 VL amino acid sequence

How the values were obtained:
[1] = test system: 786-O, Caki-1, U251 and DBTRG-05MG cells; test: Antibody binding by flow cytometry, statements across all four tumor cell lines; set-up: species or system human; settings: range over the four cell lines
Description: The lead antibodies were tested for binding to renal carcinoma cells and glioblastoma cells expressing CD70 on the cell surface by flow cytometry. Cell lines 786-O (ATCC® CRL-1932™, provided by COBIOER), Caki-1 (ATCC® HTB-46™, provided by COBIOER), U251 and DBTRG-05MG (ATCC® CRL-2020™, provided by COBIOER) were each tested for antibody binding. 786-O cells were cultured with RPMI 1640 medium (Gibco, Cat #11875093) containing of 10% FBS (Gibco, Cat #10099141) while Caki-1 cells were cultured with McCoy's 5a Modified medium (Gibco, Cat #16600082) containing 10% FBS. U251 cells were cultured with MEM medium containing of 10% FBS and 1% NEAA+1 mM sodium pyruvate. DBTRG-05MG cells were cultured with DMEM medium (Gibco, Cat #C11995500BT) containing of 10% FBS. Each of the lead antibodies and the controls were incubated for 30 mins with the different cell lines (3×10^5 cells per well) in 0.2 ml FACS buffer (1×PBS with 0.1% BSA) at 4° C. Then, the cells were pelleted, washed, and incubated at 4° C. for 30 mins with 100 μl of 1:200 diluted PE-conjugated anti human Fc (Abcam, Ab98596) in FACS buffer. The cells were pelleted again, washed with PBS, resuspended in FACS buffer and analyzed by flow cytometer (Beckman, CytoFLEX).

CD70 ECD = target: T1, CD70 ECD; test: Biacore affinity measurement on immobilized CD70 ECD; type: binding; settings: 25° C., CD70 immobilized
Description: The immobilization of antigen CD70 ECD was performed at 25° C. with HBS-EP as the running buffer. Sensor chip surface of flow cells 1, 4 were activated by freshly mixed 50 mmol/L N-Hydroxy succinimide (NHS) and 200 mmol/L 1-ethyl-3-(3-dimethylaminopropyl) carbodiimide hydrochloride (EDC) for 420s (10 μL/min). Afterwards, CD70 antigen diluted in 10 mmol/L NaAC (pH 4.5) was injected into flow cell 4 to achieve conjugation of the appropriate Response Unit, while flow cell 1 was set as a blank. After the amine coupling reaction, the remaining active coupling sites on chip surface were blocked by 420s injection of 1 mol/L ethanolamine hydrochloride.
The assay was performed at 25° C. and the running buffer was HBS-EP. Diluted antibodies were injected over the surface of flow cells 1 and 4 during the association phase, followed by injecting running buffer as the dissociation phase. All the data were processed using Biacore T200 Evaluation software version 3.1. Flow cell 1 and a blank injection of buffer in each cycle were used as a double reference for Response Units subtraction. Kinetic data of the interaction between the antibodies and CD70 antigen were obtained through affinity measurement.

[2] = Hydrophobic interaction chromatography (HIC); type: physicochemical; settings: full IgG; for Retention time: hydrophobicity by HIC
Description: Antibodies were purified from cleared cell culture supernatants using Protein A chromatography (Protein A resin slurry, 4.5 mL, Bogen, Cat #18-0010-02). Briefly, supernatants were prepared for affinity chromatography and loaded onto the columns and allowed to flow completely through the resin. The columns were washed with binding buffer containing 0.15M NaCl and 0.2M PB, PH7.0. Antibody was eluted with elution buffer containing 0.15M NaCl, 0.1M Glycine and 0.2M PB, PH 3.0. Fractions were collected and neutralized by the addition of 1/10 volume of 1M Tris, PH9.0. The fractions were dialyzed for 2 hours against 1×PBS. Purified antibody was quantified by absorbance at A280. Samples from each step of the protein A chromatography were applied onto 12% SDS-PAGE gels for reduced and non-reduced electrophoresis. The hydrophobicity was assessed with hydrophobic interaction chromatography (HIC) on a TSK gel Butyl-NPR, 4.6×100 mm with Butyl-NPR (Tosoh corporation) using a Waters HPLC 2695 system.

[3] = target: T2, rat CD70 extra-cellular domain (ECD); test: Biolayer interferometry (BLI), rat CD70; type: binding
Description: (§1) Recombinant proteins consisting of human, rat, or mouse CD70 extra-cellular domain (ECD) linked to His tag was purchased (from ACRO systems). 69A7 and 2E7 (20 nM) were immobilized on anti-human IgG Fc biosensor tips (ForteBio). Binding assays using one concentration (100 nM) of recombinant protein in solution were performed using Octet RED (ForteBio). Association time was set at 180s and dissociation time was set at 300s. Binding affinity was calculated using ForteBio Data Acquisition 6.3 software. Affinity was derived by fitting the kinetic data to a 1:1 Langmuir binding model utilizing global fitting algorithms. […] Binding assays for 2E7 using multiple dilutions (from 200 nM down to 3.13 nM) of species' recombinant CD70 ECD proteins in solution were also performed using the same method.

[4] = target: T3, human CD70 extra-cellular domain (ECD); test: Biolayer interferometry (BLI), human CD70; type: binding
Description: as §1

[5] = target: T4, mouse CD70 extra-cellular domain (ECD); test: Biolayer interferometry (BLI), mouse CD70; type: binding
Description: as §1

[6] = one concentration (100 nM), Table 9
[7] = Hu CD70 100 nM, one concentration

Molecule | EC50 relative to that of antibody 69A7 [1] | Rmax (RU) (CD70 ECD) | ka (CD70 ECD) [M⁻¹ s⁻¹] | kd (CD70 ECD) [s⁻¹] | hydrophobicity compared with the parent antibody 69A7 ([2]; HIC) | Retention time [2] [min] | Response ([3]; Rat CD70 100 nM, one concentration, *Response below range of quantification) | ka ([3]; Rat CD70 100 nM, one concentration, response below range of quantification) [M⁻¹ s⁻¹] | cross-reactivity to rat CD70 [3, 6] | Response [4, 7] | ka [4, 7] [M⁻¹ s⁻¹] | Kd ([4]; human CD70, one concentration (100 nM), read-out: equilibrium dissociation constant (KD)) [nM] | Response ([5]; MS CD70 100 nM, one concentration, *Response below range of quantification) | ka ([5]; MS CD70 100 nM, one concentration, response below range of quantification) [M⁻¹ s⁻¹] | cross-reactivity to mouse CD70 [5, 6]
B1 | 1.7-2.2 times | 45.47 | 51000 | 0.00197 | slightly more hydrophobic than the parent antibody 69A7 | 9.56 | – | – | – | – | – | – | – | – | –
B2 | – | 38.01 | 6330 | 0.00198 | – | 8.83 | *0.0198 | 94250 | no cross-reactivity | 0.3334 | 338700 | 2.9 | *0.0113 | 1494 | no cross-reactivity
